PMC6895266, “Zika virus NS3 is a canonical RNA helicase stimulated by NS5 RNA polymerase”

How the values were obtained:
[1] = biological target: ZIKV NS5, purified recombinant (UniProt A0A024B7W1); test: co-immunoprecipitation (IP Myc) with purified proteins, western blot quantification; conditions: parent: est. 1.0; read off a plot
[2] = biological target: NS3F (full-length NS3) WT (Zika virus, UniProt A0A2D0WX26 1504-2119); test: fluorescence polarization; 5 mM MgCl2, no ATP; conditions: protein: recombinant; tags: His; Myc (anti-myc blot); label: Cy3 (printed before the 5' end); single strand

ZIKV full-length NS3 (NS3F, residues 2-617), purified recombinant N569A; E573A
ratio to parent [1]: 0.16

GCGUCUUUACGGUGCU (ssRNA) [Cy3-ssRNA 16-mer]
Kd [2]: 99 ± 7 nM
